Assay results from US20010041350A1.

Molecular target: truncated polypeptides of the in vitro translation of the DNA ligase III cDNA
Assay: pull-down: XRCC1-His incubated with [35S]methionine-labeled in vitro translation product, captured on NTA-agarose beads, eluted with 200 mM imidazole

Substance: Histidine-tagged recombinant XRCC1 protein (from UniProt P18887 1-633)
- percent of translation product recovered with XRCC1-His: < 90%
